T1: ARHGEF11, O15085
T1 sequence (O15085 42-136, limits assumed, looked up): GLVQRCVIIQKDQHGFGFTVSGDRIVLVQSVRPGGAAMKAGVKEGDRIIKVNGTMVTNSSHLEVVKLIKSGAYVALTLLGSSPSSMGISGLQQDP

T2: DFNB31_2, Q9P202
T2 sequence (Q9P202 274-371, limits assumed, looked up): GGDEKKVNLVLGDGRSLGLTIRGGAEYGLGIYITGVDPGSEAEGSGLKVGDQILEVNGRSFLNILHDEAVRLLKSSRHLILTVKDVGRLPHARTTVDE

T3: GRIP1_2, Q9Y3R0
T3 sequence (Q9Y3R0 145-248, limits assumed, looked up): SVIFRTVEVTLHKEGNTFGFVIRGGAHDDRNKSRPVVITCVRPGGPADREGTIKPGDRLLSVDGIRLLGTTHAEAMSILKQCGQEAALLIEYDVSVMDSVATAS

T4: LIN7B, Q9HAP6
T4 sequence (Q9HAP6 88-185, limits assumed, looked up): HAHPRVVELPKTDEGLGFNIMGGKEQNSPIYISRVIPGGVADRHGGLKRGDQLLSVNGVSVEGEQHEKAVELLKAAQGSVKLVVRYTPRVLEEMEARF

T5: LNX2_3, Q8N448
T5 sequence (Q8N448 463-564, limits assumed, looked up): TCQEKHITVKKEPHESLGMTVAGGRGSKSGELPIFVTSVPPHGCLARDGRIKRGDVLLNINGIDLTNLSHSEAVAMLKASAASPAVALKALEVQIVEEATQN

T6: PDZD2_2, O15018
T6 sequence (O15018 329-429, limits assumed, looked up): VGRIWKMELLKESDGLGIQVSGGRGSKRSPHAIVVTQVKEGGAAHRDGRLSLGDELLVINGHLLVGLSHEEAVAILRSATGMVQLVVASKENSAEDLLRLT

T7: PDZRN3_1, Q9UPQ7
T7 sequence (Q9UPQ7 244-349, limits assumed, looked up): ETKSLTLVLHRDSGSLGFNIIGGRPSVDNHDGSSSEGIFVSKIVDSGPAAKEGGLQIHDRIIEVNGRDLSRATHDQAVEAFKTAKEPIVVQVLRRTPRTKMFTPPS

T8: PTPN13_1, Q12923
T8 sequence (Q12923 1088-1188, limits assumed, looked up): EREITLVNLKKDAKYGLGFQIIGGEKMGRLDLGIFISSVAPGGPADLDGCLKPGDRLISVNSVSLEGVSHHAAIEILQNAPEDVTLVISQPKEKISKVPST

T9: SHANK1, Q9Y566
T9 sequence (Q9Y566 658-767, limits assumed, looked up): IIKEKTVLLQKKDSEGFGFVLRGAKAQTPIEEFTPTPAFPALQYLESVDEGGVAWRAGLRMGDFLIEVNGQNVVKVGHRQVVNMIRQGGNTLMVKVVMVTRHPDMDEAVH

T10: SNTB1, Q13884
T10 sequence (Q13884 107-205, limits assumed, looked up): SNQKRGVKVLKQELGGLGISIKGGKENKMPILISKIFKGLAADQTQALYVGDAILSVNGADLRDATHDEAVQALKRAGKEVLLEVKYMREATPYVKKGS

T11: TX1BP3, O14907
T11 sequence (O14907 10-122, limits assumed, looked up): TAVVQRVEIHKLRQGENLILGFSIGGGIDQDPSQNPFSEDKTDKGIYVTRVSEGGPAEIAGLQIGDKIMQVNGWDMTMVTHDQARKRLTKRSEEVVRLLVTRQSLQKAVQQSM


Columns and labels:
Assay in all cases: holdup assay
Design in all cases: key: below the threshold = too weak to quantify, mostly under pKd 3.1 to 4
Conditions in all cases: plain residues with an end cap or a label only (N-terminal biotin on a linker: ado-ado)
AHNAK1, Q09666 = target: AHNAK1, Q09666
ARHGEF11, O15085 = target: T1, ARHGEF11, O15085
DFNB31_2, Q9P202 = target: T2, DFNB31_2, Q9P202
GRASP, Q7Z6J2 = target: GRASP, Q7Z6J2
GRIP1_2, Q9Y3R0 = target: T3, GRIP1_2, Q9Y3R0
GRIP2_3, Q9C0E4 = target: GRIP2_3, Q9C0E4
HTRA1, Q92743 = target: HTRA1, Q92743
Inadl_10, Q8NI35 = target: Inadl_10, Q8NI35
Inadl_3, Q8NI35 = target: Inadl_3, Q8NI35
Inadl_4, Q8NI35 = target: Inadl_4, Q8NI35
Inadl_5, Q8NI35 = target: Inadl_5, Q8NI35
Inadl_8, Q8NI35 = target: Inadl_8, Q8NI35
LAP2, Q96RT1 = target: LAP2, Q96RT1
LIN7B, Q9HAP6 = target: T4, LIN7B, Q9HAP6
LNX2_3, Q8N448 = target: T5, LNX2_3, Q8N448
MAGI3_2, Q5TCQ9 = target: MAGI3_2, Q5TCQ9
PARD3_3, Q8TEW0 = target: PARD3_3, Q8TEW0
PDZD2_2, O15018 = target: T6, PDZD2_2, O15018
PDZRN3_1, Q9UPQ7 = target: T7, PDZRN3_1, Q9UPQ7
PICK1, Q9NRD5 = target: PICK1, Q9NRD5
PTPN13_1, Q12923 = target: T8, PTPN13_1, Q12923
SCRIB_2, Q14160 = target: SCRIB_2, Q14160
SHANK1, Q9Y566 = target: T9, SHANK1, Q9Y566
SNTB1, Q13884 = target: T10, SNTB1, Q13884
TJP2_1, Q9UDY2 = target: TJP2_1, Q9UDY2
TX1BP3, O14907 = target: T11, TX1BP3, O14907

Chain of Inadl_3, Q8NI35 (Q8NI35 359-469): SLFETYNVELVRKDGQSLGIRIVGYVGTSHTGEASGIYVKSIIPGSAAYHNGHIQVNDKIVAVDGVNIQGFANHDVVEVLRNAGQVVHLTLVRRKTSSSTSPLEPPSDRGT
Chain of AHNAK1, Q09666 (Q09666 4-100): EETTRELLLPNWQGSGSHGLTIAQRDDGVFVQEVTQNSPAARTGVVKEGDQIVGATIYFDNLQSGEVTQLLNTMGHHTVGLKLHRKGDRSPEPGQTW
Chain of PICK1, Q9NRD5 (Q9NRD5 17-115): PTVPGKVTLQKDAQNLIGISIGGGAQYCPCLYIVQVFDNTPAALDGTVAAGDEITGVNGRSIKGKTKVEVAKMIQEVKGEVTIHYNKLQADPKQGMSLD
Chain of GRIP2_3, Q9C0E4 (Q9C0E4 238-339): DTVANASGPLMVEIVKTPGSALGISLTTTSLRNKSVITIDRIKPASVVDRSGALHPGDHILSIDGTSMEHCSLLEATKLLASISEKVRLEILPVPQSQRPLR
Chain of GRASP, Q7Z6J2 (Q7Z6J2 96-193): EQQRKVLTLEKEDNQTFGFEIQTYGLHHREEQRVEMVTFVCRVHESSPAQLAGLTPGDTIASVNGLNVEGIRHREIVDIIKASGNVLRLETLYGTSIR
Chain of PARD3_3, Q8TEW0 (Q8TEW0 582-685): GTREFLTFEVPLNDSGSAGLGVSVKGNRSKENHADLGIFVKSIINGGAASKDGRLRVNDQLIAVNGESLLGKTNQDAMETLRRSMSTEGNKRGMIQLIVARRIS
Chain of Inadl_5, Q8NI35 (Q8NI35 673-780): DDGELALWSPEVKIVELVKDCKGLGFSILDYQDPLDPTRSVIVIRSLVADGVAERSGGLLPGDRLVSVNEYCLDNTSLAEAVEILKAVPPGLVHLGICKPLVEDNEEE
Chain of HTRA1, Q92743 (Q92743 360-477): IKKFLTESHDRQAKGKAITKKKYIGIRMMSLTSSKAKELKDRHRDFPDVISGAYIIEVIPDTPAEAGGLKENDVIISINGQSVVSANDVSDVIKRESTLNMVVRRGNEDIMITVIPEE
Chain of MAGI3_2, Q5TCQ9 (Q5TCQ9 398-503): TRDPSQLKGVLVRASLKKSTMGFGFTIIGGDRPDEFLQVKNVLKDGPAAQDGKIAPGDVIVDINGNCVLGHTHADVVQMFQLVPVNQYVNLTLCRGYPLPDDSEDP
Chain of TJP2_1, Q9UDY2 (Q9UDY2 24-128): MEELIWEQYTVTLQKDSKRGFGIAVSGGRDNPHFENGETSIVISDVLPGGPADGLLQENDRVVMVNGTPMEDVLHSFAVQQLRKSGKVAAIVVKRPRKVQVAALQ
Chain of Inadl_8, Q8NI35 (Q8NI35 1425-1530): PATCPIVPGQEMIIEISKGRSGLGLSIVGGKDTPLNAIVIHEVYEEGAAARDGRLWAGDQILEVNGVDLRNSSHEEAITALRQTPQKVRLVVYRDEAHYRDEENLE
Chain of LAP2, Q96RT1 (Q96RT1 other isoform, or with tags, fused parts or gaps): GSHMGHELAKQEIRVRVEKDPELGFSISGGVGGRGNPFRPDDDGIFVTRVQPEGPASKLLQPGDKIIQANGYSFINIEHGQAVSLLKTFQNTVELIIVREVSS
Chain of SCRIB_2, Q14160 (Q14160 857-960): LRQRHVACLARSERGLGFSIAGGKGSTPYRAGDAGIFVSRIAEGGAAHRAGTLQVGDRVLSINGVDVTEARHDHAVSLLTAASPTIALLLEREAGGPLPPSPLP
Chain of Inadl_4, Q8NI35 (Q8NI35 547-651): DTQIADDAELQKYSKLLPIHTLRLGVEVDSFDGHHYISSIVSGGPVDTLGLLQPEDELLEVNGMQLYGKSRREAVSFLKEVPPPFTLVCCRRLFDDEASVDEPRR
Chain of Inadl_10, Q8NI35 (Q8NI35 1673-1763): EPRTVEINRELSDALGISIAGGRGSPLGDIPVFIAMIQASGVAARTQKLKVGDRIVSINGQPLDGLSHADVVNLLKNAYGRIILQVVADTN

Row | pKd (AHNAK1, Q09666) | pKd (ARHGEF11, O15085) | pKd (DFNB31_2, Q9P202) | pKd (GRASP, Q7Z6J2) | pKd (GRIP1_2, Q9Y3R0) | pKd (GRIP2_3, Q9C0E4) | pKd (HTRA1, Q92743) | pKd (Inadl_10, Q8NI35) | pKd (Inadl_3, Q8NI35) | pKd (Inadl_4, Q8NI35) | pKd (Inadl_5, Q8NI35) | pKd (Inadl_8, Q8NI35) | pKd (LAP2, Q96RT1) | pKd (LIN7B, Q9HAP6) | pKd (LNX2_3, Q8N448) | pKd (MAGI3_2, Q5TCQ9) | pKd (PARD3_3, Q8TEW0) | pKd (PDZD2_2, O15018) | pKd (PDZRN3_1, Q9UPQ7) | pKd (PICK1, Q9NRD5) | Binder | further results
1 | below the threshold | below the threshold | below the threshold | below the threshold | below the threshold | below the threshold | 4.11 | below the threshold | below the threshold | below the threshold | below the threshold | below the threshold | below the threshold | 3.66 | below the threshold | below the threshold | below the threshold | below the threshold | below the threshold | below the threshold | QLSFNTDTLC [ABCA2, Q9BZC7] | pKd (PTPN13_1, Q12923): below the threshold; pKd (SCRIB_2, Q14160): below the threshold; pKd (SHANK1, Q9Y566): below the threshold; pKd (SNTB1, Q13884): 3.59; pKd (TJP2_1, Q9UDY2): below the threshold; pKd (TX1BP3, O14907): 4.04
2 | below the threshold | below the threshold | below the threshold | below the threshold | below the threshold | below the threshold | 5.29 | below the threshold | 4.33 | below the threshold | below the threshold | below the threshold | below the threshold | 3.74 | below the threshold | below the threshold | 5.6 | 3.84 | below the threshold | below the threshold | EDLEDEWEVI [TECPR2, O15040] | pKd (PTPN13_1, Q12923): below the threshold; pKd (SCRIB_2, Q14160): below the threshold; pKd (SHANK1, Q9Y566): below the threshold; pKd (SNTB1, Q13884): 3.68; pKd (TJP2_1, Q9UDY2): below the threshold; pKd (TX1BP3, O14907): below the threshold
3 | below the threshold | below the threshold | below the threshold | 4.16 | below the threshold | below the threshold | below the threshold | below the threshold | below the threshold | below the threshold | below the threshold | below the threshold | below the threshold | 3.92 | below the threshold | below the threshold | below the threshold | 3.68 | below the threshold | 3.91 | EKCGKEFSEF [PRKACA, P17612] | pKd (PTPN13_1, Q12923): below the threshold; pKd (SCRIB_2, Q14160): below the threshold; pKd (SHANK1, Q9Y566): below the threshold; pKd (SNTB1, Q13884): below the threshold; pKd (TJP2_1, Q9UDY2): below the threshold; pKd (TX1BP3, O14907): below the threshold

Reference: article PMC9482650, “Quantitative fragmentomics allow affinity mapping of interactomes” (Nature Communications, 2022)
